In publication PMC3325216:

How the values were obtained:
Assay in all cases: ELISA; wt or alanine-mutant E2 from 293T lysate captured by GNA on microtiter plates, amount normalised by CBH-17 binding; CD81-LEL added at 20 µg/ml; bound CD81-LEL detected with anti-CD81; percent relative to wt
[1] = target: H77C E1E2 mutant N428A (hepatitis C virus genotype 1a, isolate H77C)
[2] = target: H77C E1E2 mutant Y443A (hepatitis C virus genotype 1a, isolate H77C)
[3] = target: H77C E1E2 mutant K446A (hepatitis C virus genotype 1a, isolate H77C)

## CD81 large extracellular loop fused to glutathione S-transferase (from UniProt P60033 1-236) (domain or fragment)
[1]
  percent CD81 binding relative to wt: 10%
[2]
  percent CD81 binding relative to wt: 20%
[3]
  percent CD81 binding relative to wt: 83%
